Test results reported in US20210130436A1 (published 2021).
Changes are numbered by the printed parent chain. Names may count otherwise.

T1: CD96 (UniProt P40200 22-585, limits assumed)
T1 construct: whole, on cells
T1 sequence (looked up): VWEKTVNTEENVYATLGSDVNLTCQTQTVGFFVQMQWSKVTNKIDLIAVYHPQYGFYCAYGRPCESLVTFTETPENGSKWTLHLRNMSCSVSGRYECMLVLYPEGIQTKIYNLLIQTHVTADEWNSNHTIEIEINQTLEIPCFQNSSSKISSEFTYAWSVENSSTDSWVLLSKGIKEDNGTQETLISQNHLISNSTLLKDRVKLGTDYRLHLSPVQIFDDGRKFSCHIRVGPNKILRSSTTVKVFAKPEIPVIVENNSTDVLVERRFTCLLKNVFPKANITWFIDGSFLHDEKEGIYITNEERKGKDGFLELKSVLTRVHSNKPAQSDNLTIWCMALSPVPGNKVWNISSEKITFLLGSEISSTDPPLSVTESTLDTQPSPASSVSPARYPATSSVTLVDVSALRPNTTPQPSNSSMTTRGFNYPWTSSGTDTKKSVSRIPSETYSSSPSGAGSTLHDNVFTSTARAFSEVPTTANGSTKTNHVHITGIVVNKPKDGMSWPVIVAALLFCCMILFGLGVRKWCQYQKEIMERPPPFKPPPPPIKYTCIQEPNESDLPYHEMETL

T2: CD226 (Homo sapiens (Human), UniProt Q15762 19-336)
T2 sequence: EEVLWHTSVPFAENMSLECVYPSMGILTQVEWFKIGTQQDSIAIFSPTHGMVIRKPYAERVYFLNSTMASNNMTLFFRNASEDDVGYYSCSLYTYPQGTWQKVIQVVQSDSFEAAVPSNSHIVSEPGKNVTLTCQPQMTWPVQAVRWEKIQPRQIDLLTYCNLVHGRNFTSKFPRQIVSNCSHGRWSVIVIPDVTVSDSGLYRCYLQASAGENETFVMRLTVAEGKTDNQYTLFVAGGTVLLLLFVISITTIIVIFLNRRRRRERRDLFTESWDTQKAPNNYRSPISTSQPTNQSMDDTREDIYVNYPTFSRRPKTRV

T3: TIGIT (Homo sapiens (Human), UniProt Q495A1 22-244)
T3 sequence: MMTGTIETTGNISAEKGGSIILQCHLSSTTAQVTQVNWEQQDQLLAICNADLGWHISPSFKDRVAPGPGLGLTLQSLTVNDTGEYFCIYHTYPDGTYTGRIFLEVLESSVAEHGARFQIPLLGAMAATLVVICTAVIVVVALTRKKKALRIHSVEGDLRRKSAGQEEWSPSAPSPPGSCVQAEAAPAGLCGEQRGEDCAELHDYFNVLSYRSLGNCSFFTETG

B1: variant CD80 IgV-Fc E35D/M47V/T62S/L85Q (Fc fusion, not shown: a dimerising Fc or GST)
chain: VIHVTKEVKEVATLSCGHNVSVEELAQTRIYWQKDKKMVLTMMSGDVNIWPEYKNRTIFDISNNLSIVILALRPSDEGTYECVVQKYEKDAFKREHLAEVTLSVKAD
B2: variant CD80 IgV-Fc E35D/M47V/L85M/R94Q (Fc fusion, not shown: a dimerising Fc or GST)
chain: B1 chain with S62T, Q85M, R94Q
B3: variant CD80 IgV-Fc H18Y/E35D/M47V/N48K (Fc fusion, not shown: a dimerising Fc or GST)
chain: B1 chain with H18Y, N48K, S62T, Q85L
B4: variant CD80 IgV-Fc E35D/M47V/I61V/L85M (Fc fusion, not shown: a dimerising Fc or GST)
chain: B1 chain with I61V, S62T, Q85M
B5: variant CD80 IgV-Fc E35D/N48K/L72V (Fc fusion, not shown: a dimerising Fc or GST)
chain: B1 chain with V47M, N48K, S62T, L72V, Q85L
B6: variant CD80 IgV-Fc E35D/L97R (Fc fusion, not shown: a dimerising Fc or GST)
chain: B1 chain with V47M, S62T, Q85L, L97R
B7: variant CD80 IgV-Fc E35D/M47V/N48K/L85M (Fc fusion, not shown: a dimerising Fc or GST)
chain: B1 chain with N48K, S62T, Q85M
B8: WT CD80 ECD-Fc (Fc fusion, not shown: a dimerising Fc or GST)
chain: VIHVTKEVKEVATLSCGHNVSVEELAQTRIYWQKEKKMVLTMMSGDMNIWPEYKNRTIFDITNNLSIVILALRPSDEGTYECVVLKYEKDAFKREHLAEVTLSVKADFPTPSISDFEIPTSNIRRIICSTSGGFPEPHLSWLENGEELNAINTTVSQDPETELYAVSSKLDFNMTTNHSFMCLIKYGHLRVNQTFNWNTTKQEHFPDN
notes: Wild-type control
B9: CD80 IgV-Fc T13R/E35D/M47L/V68M (Fc fusion, not shown: a dimerising Fc or GST)
chain: B1 chain with T13R, V47L, S62T, V68M, Q85L
B10: CD80 IgV-Fc V22D/E24D/E35D/M47L/V68M (Fc fusion, not shown: a dimerising Fc or GST)
chain: B1 chain with V22D, E24D, V47L, S62T, V68M, Q85L
B11: variant CD80 IgV-Fc E35D/M47L/A71G (Fc fusion, not shown: a dimerising Fc or GST)
chain: B1 chain with V47L, S62T, A71G, Q85L
B12: variant CD80 IgV-Fc E35D/M43I/M47L/L85M (Fc fusion, not shown: a dimerising Fc or GST)
chain: B1 chain with M43I, V47L, S62T, Q85M
B13: CD80 IgV-Fc V22D/E24D/E35D/M47L/V68M/L85M/D90G (Fc fusion, not shown: a dimerising Fc or GST)
chain: B1 chain with V22D, E24D, V47L, S62T, V68M, Q85M, D90G
B14: variant CD155 IgV-Fc S42W (Fc fusion, not shown: a dimerising Fc or GST)
chain: WPPPGTGDVVVQAPTQVPGFLGDSVTLPCYLQVPNMEVTHVWQLTWARHGESGSMAVFHQTQGPSYSESKRLEFVAARLGAELRNASLRMFGLRVEDEGNYTCLFVTFPQGSRSVDIWLRVL
B15: variant CD155 IgV-Fc S52M/Q62Y (Fc fusion, not shown: a dimerising Fc or GST)
chain: B14 chain with W42S, S52M, Q62Y
B16: variant CD155 IgV-Fc S52W/L104E (Fc fusion, not shown: a dimerising Fc or GST)
chain: B14 chain with W42S, S52W, L104E
B17: variant CD155 IgV-Fc S52M/L104Q (Fc fusion, not shown: a dimerising Fc or GST)
chain: B14 chain with W42S, S52M, L104Q
B18: variant CD155 IgV-Fc S52R/Q62F/L104Q/G111R (Fc fusion, not shown: a dimerising Fc or GST)
chain: B14 chain with W42S, S52R, Q62F, L104Q, G111R
B19: variant CD155 IgV-Fc S42W/S52R/Q62Y/L104Q (Fc fusion, not shown: a dimerising Fc or GST)
chain: B14 chain with S52R, Q62Y, L104Q
B20: variant CD155 IgV-Fc S42W/S52Q/V57L/Q62Y (Fc fusion, not shown: a dimerising Fc or GST)
chain: B14 chain with S52Q, V57L, Q62Y
B21: variant CD155 IgV-Fc S52W (Fc fusion, not shown: a dimerising Fc or GST)
chain: B14 chain with W42S, S52W
B22: variant CD155 IgV-Fc T45Q/S52L/V57L/L104E (Fc fusion, not shown: a dimerising Fc or GST)
chain: B14 chain with W42S, T45Q, S52L, V57L, L104E
B23: variant CD155 IgV-Fc S52Q (Fc fusion, not shown: a dimerising Fc or GST)
chain: B14 chain with W42S, S52Q
B24: variant CD155 IgV-Fc S52E (Fc fusion, not shown: a dimerising Fc or GST)
chain: B14 chain with W42S, S52E
B25: variant CD155 IgV-Fc S52M (Fc fusion, not shown: a dimerising Fc or GST)
chain: B14 chain with W42S, S52M
B26: variant CD155 IgV-Fc T45Q/S52L/L104E/G111R (Fc fusion, not shown: a dimerising Fc or GST)
chain: B14 chain with W42S, T45Q, S52L, L104E, G111R
B27: variant CD80 IgV-Fc E24D/Q33L/E35D/M47V/K54R/L85Q (Fc fusion, not shown: a dimerising Fc or GST)
chain: B1 chain with E24D, Q33L, K54R, S62T
B28: variant CD80 IgV-Fc Q33R/E35D/D46E/M47I (Fc fusion, not shown: a dimerising Fc or GST)
chain: B1 chain with Q33R, D46E, V47I, S62T, Q85L
B29: variant CD80 IgV-Fc A26E/E35D/M43I/M47L/L85Q/K86E/R94W (Fc fusion, not shown: a dimerising Fc or GST)
chain: B1 chain with A26E, M43I, V47L, S62T, K86E, R94W
B30: variant CD80 IgV-Fc Q33L/E35D/M47V (Fc fusion, not shown: a dimerising Fc or GST)
chain: B1 chain with Q33L, S62T, Q85L
B31: variant CD80 IgV-Fc Q33L/E35D/M47V/T79A (Fc fusion, not shown: a dimerising Fc or GST)
chain: B1 chain with Q33L, S62T, T79A, Q85L

target: T4, CD28 on Jurkat/IL2 reporter cells (human, UniProt P10747 19-220); experiment: flow cytometry, Jurkat cells (CD28)
T4 construct: whole, on cells; Endogenous CD28 of Jurkat cells; also called Jurkats (CD28)

Row | Binder | MFI at 33.3 nM
1 | B1 | 99.4 MFI
2 | B2 | 23.7 MFI
3 | B3 | 841 MFI
4 | B4 | 274 MFI
5 | B5 | 582 MFI
6 | B6 | 44.6 MFI
7 | B7 | 413 MFI

target: human CD28 (human, UniProt P10747 19-220); experiment: flow cytometry, Jurkat cells (CD28)

Row | Binder | MFI at 33.3 nM
8 | B8 | 31 MFI
9 | B9 | 15.6 MFI
10 | B10 | 1250 MFI

target: T5, human CTLA4 on CHO cells (human, UniProt P16410 36-223); experiment: flow cytometry, CHO cells stably expressing CTLA4
T5 construct: whole, on cells; CHO cells stably expressing CTLA4; also called huCTLA4
T5 sequence (P16410 36-223): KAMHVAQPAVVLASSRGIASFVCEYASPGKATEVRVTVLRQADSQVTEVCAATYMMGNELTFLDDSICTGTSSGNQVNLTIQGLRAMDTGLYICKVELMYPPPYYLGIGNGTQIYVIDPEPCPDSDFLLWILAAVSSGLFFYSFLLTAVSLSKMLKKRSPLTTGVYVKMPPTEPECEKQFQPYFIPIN

Row | Binder | MFI at 33.3 nM
11 | B11 | 20600 MFI
12 | B1 | 31200 MFI
13 | B2 | 23300 MFI
14 | B12 | 24600 MFI
15 | B4 | 28800 MFI

target: T6, human PD-L1 on CHO cells (human, UniProt Q9NZQ7 19-290); experiment: flow cytometry, CHO cells stably expressing PD-L1
T6 construct: whole, on cells; CHO cells stably expressing PD-L1; also called huPD-L1
T6 sequence (Q9NZQ7 19-290): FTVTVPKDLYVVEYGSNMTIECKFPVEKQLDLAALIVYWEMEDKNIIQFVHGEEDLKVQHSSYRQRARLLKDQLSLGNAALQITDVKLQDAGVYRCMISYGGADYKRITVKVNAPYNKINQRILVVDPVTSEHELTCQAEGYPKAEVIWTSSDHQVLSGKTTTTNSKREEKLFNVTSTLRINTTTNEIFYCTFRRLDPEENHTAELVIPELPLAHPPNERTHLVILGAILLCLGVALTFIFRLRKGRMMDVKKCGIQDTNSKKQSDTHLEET

Row | Binder | MFI at 33.3 nM
16 | B11 | 6640 MFI
17 | B3 | 6460 MFI
18 | B12 | 4880 MFI
19 | B4 | 3050 MFI
20 | B5 | 3030 MFI
21 | B6 | 2610 MFI
22 | B7 | 5660 MFI

target: T7, human PD-L1 (human, UniProt Q9NZQ7 19-290); experiment: flow cytometry, CHO cells stably expressing PD-L1
T7 construct: also called huPD-L1; CD274
T7 sequence (Q9NZQ7 19-290): as above

Row | Binder | MFI at 33.3 nM
23 | B9 | 20000 MFI
24 | B10 | 15400 MFI
25 | B13 | 19000 MFI

target: T1, CD96; experiment: flow cytometry, Fc fusion at 100 nM, CD96-transfected cells

Row | Binder | MFI at 100 nM
26 | B14 | 2560 MFI
27 | B15 | 1650 MFI
28 | B16 | 1630 MFI
29 | B17 | 1630 MFI
30 | B18 | 2360 MFI
31 | B19 | 1760 MFI
32 | B20 | 1700 MFI
33 | B21 | 1710 MFI
34 | B22 | 1530 MFI
35 | B23 | 1820 MFI
36 | B24 | 1800 MFI
37 | B25 | 1610 MFI
38 | B26 | 1580 MFI

target: T2, CD226; experiment: flow cytometry, Fc fusion at 100 nM, CD226-transfected cells

Row | Binder | MFI at 100 nM
39 | B14 | 2130 MFI
40 | B15 | 2000 MFI
41 | B16 | 1910 MFI
42 | B17 | 2250 MFI
43 | B18 | 3170 MFI
44 | B19 | 2300 MFI
45 | B20 | 2140 MFI
46 | B21 | 2040 MFI
47 | B22 | 5940 MFI
48 | B23 | 2020 MFI
49 | B24 | 2600 MFI
50 | B25 | 1900 MFI
51 | B26 | 2390 MFI

target: T3, TIGIT; experiment: flow cytometry, Fc fusion at 100 nM, TIGIT-transfected cells

Row | Binder | MFI at 100 nM
52 | B14 | 2430 MFI
53 | B15 | 1930 MFI
54 | B16 | 1940 MFI
55 | B17 | 2670 MFI
56 | B18 | 2970 MFI
57 | B19 | 1920 MFI
58 | B20 | 1960 MFI
59 | B21 | 1990 MFI
60 | B22 | 2860 MFI
61 | B23 | 2290 MFI
62 | B24 | 2660 MFI
63 | B25 | 1870 MFI
64 | B26 | 2290 MFI

target: T8, human CTLA4 (full-length, expressed on CHO cells) (human, UniProt P16410 36-223); experiment: flow cytometry, CHO cells expressing huCTLA4, PE anti-human Fc
T8 construct: also called huCTLA4
T8 sequence (P16410 36-223): as the sequence (P16410 36-223) above

Row | Binder | MFI at 33.3 nM
65 | B27 | 311000 MFI
66 | B28 | 3560 MFI
67 | B29 | 2950 MFI
68 | B30 | 47600 MFI
69 | B31 | 28900 MFI

target: T9, human PD-L1 (full-length, expressed on CHO cells) (human, UniProt Q9NZQ7 19-290); experiment: flow cytometry, CHO cells expressing huPD-L1, PE anti-human Fc
T9 construct: also called huPD-L1; CD274
T9 sequence (Q9NZQ7 19-290): as the sequence (Q9NZQ7 19-290) above

Row | Binder | MFI at 33.3 nM
70 | B27 | 67100 MFI
71 | B30 | 47900 MFI
72 | B31 | 62100 MFI

target: T10, CD28 (endogenously expressed on Jurkat/IL2 reporter cells) (human, UniProt P10747 19-220); experiment: flow cytometry, Jurkat/IL2 reporter cells (endogenous CD28), PE anti-human Fc
T10 construct: Endogenous CD28 of Jurkat cells; also called human CD28

Row | Binder | MFI at 33.3 nM
73 | B28 | 303 MFI
74 | B29 | 314 MFI
